Results from article PMC10354078, “Conformational restriction shapes the inhibition of a multidrug efflux adaptor protein” (Nature Communications, 2023).

T1: AcrB in SMALP (styrene maleic acid lipid particle) nanodiscs (E. coli, UniProt P31224 1-1049)
T1 construct: AcrB, inner membrane RND transporter of the E. coli AcrAB-TolC pump; pET15b plasmid; embedded in native lipid SMALP nanodiscs; also called trimeric AcrB SMALPs; source: E. coli C43(DE3) ΔacrAB, extracted from membranes with 2.5% SMA 2000 into native nanodiscs, purified (nickel NTA)
T1 sequence: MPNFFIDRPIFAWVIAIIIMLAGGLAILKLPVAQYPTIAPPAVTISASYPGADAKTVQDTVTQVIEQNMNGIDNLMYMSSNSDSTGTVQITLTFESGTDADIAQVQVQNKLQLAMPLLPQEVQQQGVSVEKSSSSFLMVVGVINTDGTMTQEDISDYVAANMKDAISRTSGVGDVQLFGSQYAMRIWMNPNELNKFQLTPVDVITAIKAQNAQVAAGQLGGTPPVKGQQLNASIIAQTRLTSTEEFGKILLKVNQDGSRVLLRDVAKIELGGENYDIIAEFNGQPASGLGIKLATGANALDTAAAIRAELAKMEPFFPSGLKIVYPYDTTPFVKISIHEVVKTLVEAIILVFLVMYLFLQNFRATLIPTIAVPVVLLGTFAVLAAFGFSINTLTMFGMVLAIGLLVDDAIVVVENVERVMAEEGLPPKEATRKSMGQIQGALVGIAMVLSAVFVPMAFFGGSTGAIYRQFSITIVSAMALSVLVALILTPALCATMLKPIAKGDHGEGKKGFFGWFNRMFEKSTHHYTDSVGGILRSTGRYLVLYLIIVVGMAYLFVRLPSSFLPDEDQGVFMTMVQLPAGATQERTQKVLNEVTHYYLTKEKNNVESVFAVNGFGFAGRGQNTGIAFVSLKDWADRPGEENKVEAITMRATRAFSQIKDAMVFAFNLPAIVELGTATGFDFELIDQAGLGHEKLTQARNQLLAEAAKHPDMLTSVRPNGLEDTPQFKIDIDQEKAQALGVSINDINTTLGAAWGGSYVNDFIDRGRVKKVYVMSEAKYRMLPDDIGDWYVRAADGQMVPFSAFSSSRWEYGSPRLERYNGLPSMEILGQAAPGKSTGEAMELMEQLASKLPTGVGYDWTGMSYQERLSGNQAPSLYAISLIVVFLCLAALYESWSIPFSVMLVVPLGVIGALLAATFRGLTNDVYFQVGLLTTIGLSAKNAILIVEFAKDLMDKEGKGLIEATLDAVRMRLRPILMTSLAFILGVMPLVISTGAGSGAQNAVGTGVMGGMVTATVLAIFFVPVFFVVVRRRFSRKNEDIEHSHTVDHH


Columns and labels:
[1] = molecular target: the molecule itself; experiment: native MS; pH 6.0, 100 mM ammonium acetate; AcrA^L with 0.03% DDM (2x CMC); Synapt G2-Si or Q-Exactive UHMR
[2] = molecular target: the molecule itself; experiment: native MS; pH 7.4, 100 mM ammonium acetate; AcrA^L with 0.03% DDM
[3] = molecular target: T1, AcrB in SMALP (styrene maleic acid …); experiment: native gel or EMSA; SMA-PAGE (native PAGE for SMALPs): AcrA constructs mixed with AcrB in SMALP nanodiscs; Novex Tris-Glycine 4-20% gels, 25 mM Tris pH 8.8, 192 mM glycine, 150 V, 4 °C, Coomassie stain; conditions: both partners purified

Binder	stoichiometry N [1]	stoichiometry N [2]	stoichiometry N [3]
AcrA^L (lipidated AcrA) (natural protein, lipidated at Cys25 (after cleavage of signal peptide 1-24), AcrA, periplasmic adaptor protein of E. coli; full length AcrA cloned from genomic DNA; signal peptide residues 1-24 is cleaved, the protein begins at lipidated Cys25; Cloned into pET28a with NcoI and XhoI; source: E. coli C43(DE3) ΔacrAB, solubilised from membranes with 1% DDM, purified (HiTrap, SEC) in 0.03% DDM) CDDKQAQQGGQQMPAVGVVTVKTEPLQITTELPGRTSAYRIAEVRPQVSGIILKRNFKEGSDIEAGVSLYQIDPATYQATYDSAKGDLAKAQAAANIAQLTVNRYQKLLGTQYISKQEYDQALADAQQANAAVTAAKAAVETARINLAYTKVTSPISGRIGKSNVTEGALVQNGQATALATVQQLDPIYVDVTQSSNDFLRLKQELANGTLKQENGKAKVSLITSDGIKFPQDGTLEFSDVTVDQTTGSITLRAIFPNPDHTLLPGMFVRARLEEGLNPNAILVPQQGVTRTPRGDATVLVVGADDKVETRPIVASQAIGDKWLVTEGLKAGDRVVISGLQKVRPGVQVKAQEVTADNNQQAASGAQPEQSKS	2	≤ 5	–
AcrA^S (soluble AcrA lacking signal peptide and lipidation) (domain or fragment, AcrA of E. coli without signal peptide residues 1-24; Cys25 replaced by a starting methionine (Met25); not lipidated; pET28a construct; source: E. coli C43(DE3) ΔacrAB, cytosolic fraction, purified (HiTrap, SEC)) MDDKQAQQGGQQMPAVGVVTVKTEPLQITTELPGRTSAYRIAEVRPQVSGIILKRNFKEGSDIEAGVSLYQIDPATYQATYDSAKGDLAKAQAAANIAQLTVNRYQKLLGTQYISKQEYDQALADAQQANAAVTAAKAAVETARINLAYTKVTSPISGRIGKSNVTEGALVQNGQATALATVQQLDPIYVDVTQSSNDFLRLKQELANGTLKQENGKAKVSLITSDGIKFPQDGTLEFSDVTVDQTTGSITLRAIFPNPDHTLLPGMFVRARLEEGLNPNAILVPQQGVTRTPRGDATVLVVGADDKVETRPIVASQAIGDKWLVTEGLKAGDRVVISGLQKVRPGVQVKAQEVTADNNQQAASGAQPEQSKS	–	–	1
